# Where two headings read alike, the source gives them in different places.
# Assays:
# OVCAR-5 cells [1] = experiment: Phosphotyrosine immunoblot, OVCAR-5 cells; format: cell-based, human; details: data not shown
# platelets = experiment: Platelet release reactions (granule contents); format: cell-based
# Source text: Platelets comprise a plurality of different granules, including alpha granules and dense granules, whose contents are released when the platelets aggregate. […] Thus, normal platelet physiological processes are necessarily further perturbed with administration of applaggin.
# [2] = tested on: c-Ha-ras transfected rat embryo (4R) cells; details: cited from earlier work
# T24 cells = experiment: Cellular binding to laminin and Matrigel; format: cell-based, human
# [3] = tested on: human platelet rich plasma; details: cited from earlier work
# [4] = tested on: human melanoma M24 met cells; experiment: M24 met cell adhesion to extracellular matrix proteins; format: cell-based
# Source text: The compositions of the present invention also have utility in inhibiting metastasis in melanoma, carcinoma and sarcoma patients. […] Thus, methods and compositions for preventing metastases in melanoma, carcinoma and sarcoma patients are also contemplated as within the scope of the present invention.
# [5] = tested on: adhesion formation during wound healing; experiment: Rabbit model of adhesion formation (uterine horns); format: in vivo; details: Alzet pumps, 10 μl/hr (36 μg/ml)
# Experimental: In preliminary studies in a rabbit model of adhesion formation, abrasion and devascularization of the uterine horns of rabbits were employed to induce adhesion formation during wound healing in untreated animals [Rodgers, K. et al., Int. J. Fertil. 35:40 (1990)]. Alzet pumps were employed to continuously deliver CN at a rate of 10 μl/hr (36 μg/ml). […] Therefore, compositions and methods for preventing adhesion formation whereby an amount of CN effective to prevent adhesion formation is administered to a patient in need of such treatment are also contemplated as within the scope of the present invention.
# OVCAR-5 cells [6] = experiment: Adhesion of OVCAR-5 cells to vitronectin coated plate; format: cell-based, human
# Source text: FIG. 21. CN and other antagonists of αvβ5 inhibits adhesion of OVCAR-5 cells to vitronectin. Adhesion of cancer cells to the matrix is one of the critical steps of cancer spreading and metastasis. It is well established that integrin αvβ5 mediates adhesion of cells to vitronectin.
# MDA-MB-435 cells = experiment: Invasion of MDA-MB-435 cells through Matrigel-coated invasion chamber; format: cell-based, human; details: 48 hrs
# Experimental: 2.5×10^3 MDA-MB-435 cells treated with various concentration of CN were allowed to migrate across the Matrigel layer for 48 hrs. Assays at each CN concentration were performed in triplicate. Cells invaded through the Matrigel filter were fixed and stained. Invaded cells were quantitated with microscope by the mean of cell numbers in three randomly selected vision field.
# purified (GP)IIb/IIIa = purified (GP)IIb/IIIa (Homo sapiens, UniProt P05106+P08514); experiment: Fibrinogen-(GP)IIb/IIIa ELISA; format: binding
# Source text: Several lines of evidence indicate that CN inhibits platelet aggregation by binding specifically to the (GP)IIb/IIIa integrin receptor. […] Additionally, the partial amino acid sequence of CN indicates considerable similarity with other disintegrins known to bind to (GP)IIb/IIIa. Finally, CN blocks 7E3 binding to (GP)IIb/IIIa. 7E3 is a murine monoclonal antibody that specifically binds to (GP)IIb/IIIa, thereby inhibiting human and canine platelet aggregation [Coller, B. S. et al., J. Clin. Invest. 72:325 (1983)].
molecule,measurement,setting,value
contortrostatin (protein) DAPANPCCDAATCKLTTGSQCADGLCCDQCKFMKEGTVCRRARGDDLDDYCNGISAGCPRNPFHA,tyrosine phosphorylation,OVCAR-5 cells [1],do not show significant enhancement of tyrosine phosphorylation
same,platelet release reactions,platelets,does not inhibit platelet release reactions
same,Inhibition of 4R cell binding to fibronectin,[2]; CN at 1 μg/ml,46%
same,Inhibition of 4R cell binding to fibronectin,[2]; CN at 5 μg/ml,88%
same,cellular binding to Matrigel,T24 cells,does not inhibit cellular binding to Matrigel
same,cellular binding to laminin,T24 cells,does not significantly inhibit cellular binding to laminin
same,50% inhibition (IC50) of human platelet aggregation in platelet rich plasma,[3],0.8 µg/mL
same,concentration that completely inhibits ADP-induced platelet aggregation,[3]; preincubation for 1 minute,approximately 100 nM
same,M24 met cell adhesion to fibronectin and vitronectin,[4],inhibit
same,adhesion formation,[5],decreased adhesion formation
same,adhesion of OVCAR-5 cells to vitronectin,OVCAR-5 cells [6],inhibited
same,invasion of synthetic basement membrane by MDA-MB-435 cells,MDA-MB-435 cells,inhibitory effect
same,(GP)IIb/IIIa binding to immobilized fibrinogen,purified (GP)IIb/IIIa,effectively blocks (GP)IIb/IIIa binding
